In article PMC6265488:

Key:
Assay in all cases: co-sedimentation
[1] = target: 28S small mitoribosome subunit (mtSSU) (human (endogenous in HEK293T or 143B))
[2] = target: 55S monosome (human (endogenous in HEK293T or 143B))
[3] = target: 39S large mitoribosome subunit (mtLSU) (human (endogenous in HEK293T or 143B))

percent of total GTPBP10 that co-sediments [1] [%] | percent of total GTPBP10 that co-sediments [2] [%] | percent of total GTPBP10 that co-sediments [3] [%] | Substance
10 | 1 to 2 | 10 | GTPBP10 (endogenous in 143B, isoform 2) (natural protein)
10 | 1 to 2 | 10 | GTPBP10 (endogenous in HEK293T, isoform 1) (from UniProt A4D1E9-1 1-387) (natural protein)
